From paper PMC9405973, “Altered Conformational Landscape upon Sensing Guanine Nucleotides in a Disease Mutant of Elongation Factor-like 1 (EFL1) GTPase” (Biomolecules, 2022)

Tests used:
[1] = biological target: Sdo1 (Saccharomyces cerevisiae) (UniProt Q07953); assay: ITC; conditions: cited from earlier work
[2] = Enzyme kinetics of GTP hydrolysis (PNP coupled assay, Michaelis–Menten); type: biochemical, Saccharomyces cerevisiae; conditions: isolated enzyme
Experimental: (§1) Finally, we measured the enzyme kinetics of mutant Efl1 R1086Q as an isolated enzyme and bound to Sdo1 using an enzymatic coupled assay with a purine nucleoside phosphorylase (PNP) enzyme. This analysis was extended to another disease mutation (EFL1 M882K) also located in domain IV of the GTPase using the equivalent yeast variant, Efl1 L910K [17]. The Km and kcat kinetic parameters were calculated using non-linear regression assuming a Michaelis–Menten model (Supplementary Table S1). […] The catalytic constant for mutant R1086Q and the wild-type enzyme consisted of 0.67 min^−1, and it was 0.58 min^−1 for mutant Efl1 L910K. […] In line with the proposed role of Sdo1 as a guanine exchange factor of Efl1, previous results have shown that the interaction of wild-type Efl1 with Sdo1 impacted its Km for GTP, decreasing its value 2–3-fold. The Km values for the complexes formed between Sdo1 and Efl1 mutants decreased by half with respect to their cognate-free counterpart and differed from each other. […] The measured Km value comprises all the microscopic rate constants of the individual reactions occurring in the enzyme, which include the binding to the substrate and product and the corresponding conformational changes.
Hydrolysis of GTP was measured using the Enzchek Phosphate Assay kit (Molecular Probes) as described by Webb. Standard reactions consisted of 100 µL containing 6 µM of Efl1 R1086Q and Efl1 L910K, 0.3 mM MESG, 1.0 U purine nucleoside phosphorylase (PNP) and the indicated amounts of GTP. Measurements done in the presence of effector protein contained 25 µM of Sdo1.
The reaction buffer consisted of 50 mM HEPES -KOH pH 7.5, 150 mM NaCl, 5 mM MgCl2.
(§2) Reactions were initiated and the GTPase was added after 3 min. Time courses were followed by recording the change in absorbance at 360 nm in a Cary 60 UV -Vis spectrophotometer (Agilent Technologies). Background absorbance was recorded prior to the addition of the GTPase and subtracted from the sample signals. The slope of the measured time courses corresponded to the GTP hydrolysis rate. The concentration of releas ed phosphate was estimated using a molar absorption coefficient at 360 nm of 14,386 M -1 cm-1 previously described in [2]. Data were analysed by nonlinear regression to the M ichaelis-Menten equation with the program Origin Version 5.0 (OriginLab, Co., Northampton, MA). […]
M HEPES-KOH pH 7.4, 2.5 mM magnesium acetate, 50 mM sucrose, 2 mM DTT, 0.1 mM PMSF, 0.1 mM benzamidine, 8 mM putrescine, 1 mM spermidine. […]
Dilution at the end of each titration was no longer than 2.5% of the initial volume. Data were corrected for the background signal by subtracting the fluorescence of the same ligand concentration without the GTPase in the reaction mixture.
(§3) Maximum emission at 440 nm was replotted as a function of nucleotide concentration and analysed

[3] = substrate: Nc1nc2c(ncn2[C@@H]2O[C@H](COP(=O)(O)OP(=O)(O)OP(=O)(O)O)[C@@H](O)[C@H]2O)c(=O)[nH]1; assay: GTP hydrolysis by PNP-coupled Enzchek phosphate assay (MESG, 360 nm), pH 7.5, 5 mM MgCl2, 6 µM Efl1 alone, Michaelis-Menten fit.; type: biochemical; conditions: 25.0 °C
Experimental: as §1
Hydrolysis of GTP was measured using the Enzchek Phosphate Assay kit (Molecular Probes) as described by Webb. […]
as §2, with “The concentration of releas ed phosphate was estimated using a molar absorption coefficient at 360 nm of 14,386 M -1 cm-1 previously described in [2].” left out
as §3

[4] = tested on: Tif6 bound to 60S subunits; assay: Tif6 release assay with purified yeast components; type: biochemical, Saccharomyces cerevisiae; conditions: 50 nM Efl1 variant, 50 nM Sdo1, 100 µM GTP, 30 °C, 10 min
Experimental: The release of Tif6 (yeast orthologue of eIF6) was performed as previously described in [3, 15]. Reaction mixtures contained 10 nM 60S subunits, 40 nM Tif6, 50 nM Efl1 variant, 50 nM Sdo1, and 100 µM GTP in buffer of 10 mM Tris-HCl at pH 7.4, 75 mM KCl, and 1.5 mM MgCl2 supplemented with RNAse inhibitors (Promega, Madison, WI, USA) and protease inhibitors free of EDTA (GoldBio, St. Louis, MO, USA). GTP was omitted in the negative control, and 50 mM EDTA was added as the positive control to disassemble the 60S ribosomal subunits. Reaction mixtures of 100 µL were incubated at 30 °C for 10 min and added on top of 150 µL of a 30% sucrose cushion prepared in the same buffer. Samples were centrifuged at 476,000× g for 30 min in an Optima tabletop MX ultracentrifuge with a TLA-100 rotor. The top 200 µL (free fraction) was recovered, and the remaining 50 µL was resuspended in 150 µL of the same buffer. Samples were precipitated with 30% trichloroacetic acid, electrophoresed in 10% Tris-glycine SDS-PAGE, transferred to a PVDF membrane, and immunoblotted with antibodies anti-eIF6 (PA531066; Thermo Scientific; dilution 1:3000) and anti-uL3 (OAAB09713; Aviva Systems Biology, San Diego, CA, USA; dilution 1:500) overnight at 4 °C. […] Signals were quantified using programme Image J version 1.8.0. […]

Efl1, sequence (P53893 whole entry): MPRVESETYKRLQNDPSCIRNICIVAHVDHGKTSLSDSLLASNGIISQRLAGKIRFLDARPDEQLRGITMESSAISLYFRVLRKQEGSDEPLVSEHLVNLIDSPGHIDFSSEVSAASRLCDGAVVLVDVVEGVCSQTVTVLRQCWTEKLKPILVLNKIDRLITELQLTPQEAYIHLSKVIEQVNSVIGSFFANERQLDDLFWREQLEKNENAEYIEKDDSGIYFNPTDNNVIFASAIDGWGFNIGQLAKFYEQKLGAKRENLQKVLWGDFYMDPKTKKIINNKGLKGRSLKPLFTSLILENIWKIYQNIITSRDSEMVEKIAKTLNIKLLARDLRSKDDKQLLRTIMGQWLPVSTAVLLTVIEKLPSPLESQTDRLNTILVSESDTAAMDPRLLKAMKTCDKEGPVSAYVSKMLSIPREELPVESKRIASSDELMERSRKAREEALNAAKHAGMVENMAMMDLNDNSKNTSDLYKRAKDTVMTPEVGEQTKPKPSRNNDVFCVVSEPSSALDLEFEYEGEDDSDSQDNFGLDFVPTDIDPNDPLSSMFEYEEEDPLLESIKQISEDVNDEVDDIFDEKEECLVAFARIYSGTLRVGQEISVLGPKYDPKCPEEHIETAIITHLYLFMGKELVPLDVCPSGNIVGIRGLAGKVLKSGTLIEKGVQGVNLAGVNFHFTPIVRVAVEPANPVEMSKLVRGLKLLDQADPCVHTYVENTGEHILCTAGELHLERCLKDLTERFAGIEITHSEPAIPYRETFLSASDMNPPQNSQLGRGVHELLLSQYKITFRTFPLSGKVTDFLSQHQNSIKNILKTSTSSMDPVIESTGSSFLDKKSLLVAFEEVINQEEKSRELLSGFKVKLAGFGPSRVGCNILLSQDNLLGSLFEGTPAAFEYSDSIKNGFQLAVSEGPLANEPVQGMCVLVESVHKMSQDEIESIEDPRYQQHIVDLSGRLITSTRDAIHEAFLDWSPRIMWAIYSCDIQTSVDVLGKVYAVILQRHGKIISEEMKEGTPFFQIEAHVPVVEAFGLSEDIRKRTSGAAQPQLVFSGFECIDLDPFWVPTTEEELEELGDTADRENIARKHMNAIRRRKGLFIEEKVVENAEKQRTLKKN
Sdo1 (Saccharomyces cerevisiae), sequence (Q07953 whole entry): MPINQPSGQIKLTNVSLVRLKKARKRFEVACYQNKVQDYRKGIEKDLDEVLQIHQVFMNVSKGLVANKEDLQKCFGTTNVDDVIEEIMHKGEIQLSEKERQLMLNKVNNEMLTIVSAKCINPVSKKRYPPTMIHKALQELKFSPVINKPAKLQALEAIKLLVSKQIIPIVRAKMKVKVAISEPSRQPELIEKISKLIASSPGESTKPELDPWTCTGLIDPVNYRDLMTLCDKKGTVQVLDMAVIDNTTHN

Row | Molecule | Kd [1] [nM] | kcat [2] [s⁻¹] | Km [3] [µM] | release of Tif6 from the 60S subunit (distribution of Tif6 in free and bound fraction, immunoblot) [4]
1 | Efl1 (from UniProt P53893) | 300 | – | – | –
2 | Efl1 R1086Q (Saccharomyces cerevisiae S288C; R1086Q) (protein, recombinantly expressed in S. cerevisiae; isolated GTPase) MPRVESETYKRLQNDPSCIRNICIVAHVDHGKTSLSDSLLASNGIISQRLAGKIRFLDARPDEQLRGITMESSAISLYFRVLRKQEGSDEPLVSEHLVNLIDSPGHIDFSSEVSAASRLCDGAVVLVDVVEGVCSQTVTVLRQCWTEKLKPILVLNKIDRLITELQLTPQEAYIHLSKVIEQVNSVIGSFFANERQLDDLFWREQLEKNENAEYIEKDDSGIYFNPTDNNVIFASAIDGWGFNIGQLAKFYEQKLGAKRENLQKVLWGDFYMDPKTKKIINNKGLKGRSLKPLFTSLILENIWKIYQNIITSRDSEMVEKIAKTLNIKLLARDLRSKDDKQLLRTIMGQWLPVSTAVLLTVIEKLPSPLESQTDRLNTILVSESDTAAMDPRLLKAMKTCDKEGPVSAYVSKMLSIPREELPVESKRIASSDELMERSRKAREEALNAAKHAGMVENMAMMDLNDNSKNTSDLYKRAKDTVMTPEVGEQTKPKPSRNNDVFCVVSEPSSALDLEFEYEGEDDSDSQDNFGLDFVPTDIDPNDPLSSMFEYEEEDPLLESIKQISEDVNDEVDDIFDEKEECLVAFARIYSGTLRVGQEISVLGPKYDPKCPEEHIETAIITHLYLFMGKELVPLDVCPSGNIVGIRGLAGKVLKSGTLIEKGVQGVNLAGVNFHFTPIVRVAVEPANPVEMSKLVRGLKLLDQADPCVHTYVENTGEHILCTAGELHLERCLKDLTERFAGIEITHSEPAIPYRETFLSASDMNPPQNSQLGRGVHELLLSQYKITFRTFPLSGKVTDFLSQHQNSIKNILKTSTSSMDPVIESTGSSFLDKKSLLVAFEEVINQEEKSRELLSGFKVKLAGFGPSRVGCNILLSQDNLLGSLFEGTPAAFEYSDSIKNGFQLAVSEGPLANEPVQGMCVLVESVHKMSQDEIESIEDPRYQQHIVDLSGRLITSTRDAIHEAFLDWSPRIMWAIYSCDIQTSVDVLGKVYAVILQRHGKIISEEMKEGTPFFQIEAHVPVVEAFGLSEDIRKRTSGAAQPQLVFSGFECIDLDPFWVPTTEEELEELGDTADRENIARKHMNAIQRRKGLFIEEKVVENAEKQRTLKKN | – | 0.0112 | 146 | reduced portion of Tif6 in the free fraction compared with that for the wild type
